This passage reports switch fluorescence ratio results from the supplement of paper PMC10126150.

This series deals with ATP. The series can be described thus: switch fluorescence ratio, 500 uM ATP over buffer (Cy3 cluster intensity, sum of 5 cycles each) (fold (ratio)); higher = stronger signal-on switching upon ATP binding; sequences stand for … in TCGTCGGCAGCGTCAGATGTGTATAAGAGACAGTTTTTTTTTTTTTTTTTTTTTTTTT…TC. Particulars: aptamer strand: ATP DNA aptamer (quencher-CACCTGGGGGAGTATTGCGGAGGAAGG + anchor), 100 nM annealed; ATP concentration: 500 uM. The procedure, abridged:
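Clusters carrying Cy3-labelled switching strands on a modified Illumina MiSeq flow-cell were annealed to 100 nM quencher-labelled ATP aptamer and imaged in selection buffer. They were imaged again after 15 min with 500 uM ATP at 22 °C, over five buffer/ATP cycles with NaOH stripping and re-annealing in between. For each cluster, the fluorescence ratio is the summed Cy3 intensity of the target cycles divided by that of the buffer cycles, averaged per switch-domain sequence. Clusters outside 100-1000 RFU were left out.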

± gives the standard deviation of the averaged measurements.
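Further: ATP exposure 15 min at 22 °C before imaging.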

Turning to GCTGGCAGTG, the switch fluorescence ratio was 0.972 ± 0.029.

Turning to TGCTTCTCCA, the switch fluorescence ratio is 1.03 ± 0.036. For CGGTCGGGAT the value was 0.9606 ± 0.0031; for CTTGCACCC, 1.07 ± 0.024.

In the case of TTAATGTTCA, the switch fluorescence ratio is 1 ± 0.031. To TATTGCCTGT belongs 0.974 ± 0.019; to GGGTTATTGG, 0.991 ± 0.04. For ATTGTGGGCT the value was 0.967 ± 0.063; for GGTTCTTGG, 0.995 ± 0.062; for CATTAAAGAT, 1.01 ± 0.077. For GTGAGTAGGG the value was 0.989 ± 0.018. Take TAAGAGGGCA: the switch fluorescence ratio came out at 1.01 ± 0.014. Regarding GAGATAGTGT, the switch fluorescence ratio was found to be 0.991 ± 0.036. To GCTAAATCGC belongs 1.04 ± 0.034; to ATAGTGGGTG, 0.997 ± 0.037; to GGCCCGTTAC, 1.63 ± 0.2. To TAATAGACGG belongs 1 ± 0.026; to TGATGGAGAG, 0.97 ± 0.034.

As to TTGTACAA, the switch fluorescence ratio stood at 0.993 ± 0.017. To TTATATGGGT belongs 0.999 ± 0.013.

On to GATAATAGGC, for which the switch fluorescence ratio is 1 ± 0.06.

On to TTGTATGGTT, for which the switch fluorescence ratio came out at 1.02 ± 0.019.

As for ACTACGTTAC, the switch fluorescence ratio stood at 2.88 ± 0.039.

For the sequence ACCCTGGACA, the switch fluorescence ratio worked out at 1.01 ± 0.019. For ACTTAATGGG, the switch fluorescence ratio was determined as 1.034 ± 0.0014. TTTGTTCTGT: the switch fluorescence ratio turned out to be 1.01 ± 0.018.

As for GGGTTGATAG, the switch fluorescence ratio came to 1.01 ± 0.021. Turning to TTTATTGTGG, the switch fluorescence ratio stood at 0.9934 ± 0.0071. For GACAGGAATT the value was 1.029 ± 0.008; for CGCGAGGGGC, 1.07 ± 0.012. For CTGCTTAAGG the value was 1.04 ± 0.065; for CGTCCTCATG, 1.302 ± 0.0067; for CTGCAGATCG, 1.02 ± 0.06. As to GCTCTAATGC, the switch fluorescence ratio is 1.17 ± 0.096. For TGAGTACGTC the value was 1.06 ± 0.14. As to GATAGTTGCG, the switch fluorescence ratio is 1.03 ± 0.06. For TAGTCCCCCC the value was 1.21 ± 0.2; for TTAGTGGTAC, 1.15 ± 0.044; for TAGCTCTAGT, 1.016 ± 0.0044. Regarding ATGGTGTCGA, the switch fluorescence ratio came out at 0.947 ± 0.029. For CAAAAGGGAT the value was 1.03 ± 0.017; for GAAAGAGTTC, 0.99729 ± 0.00094; for GGGTCACGTT, 0.997 ± 0.032. For GAAACTTGGT the value was 1.004 ± 0.0065; for ATACATATTT, 1.035 ± 0.0075; for GTGGTAACCT, 1.4 ± 0.12. To CACGGGATGG belongs 1.05 ± 0.026; to CGTTCAGCGG, 0.996 ± 0.023. On to ACTGGGCTGT, for which the switch fluorescence ratio was found to be 1.06 ± 0.062. Regarding ATTCATATTG, the switch fluorescence ratio stood at 1.01 ± 0.042. To TAAAAGTGGG belongs 1.009 ± 0.003. For AGGCAGTTTC the value was 0.988 ± 0.049. Take CGGCTTATGT: the switch fluorescence ratio came out at 0.9807 ± 0.0029.

As to AAAGGCCGTC, the switch fluorescence ratio came to 1.04 ± 0.012. For GTAGAAGGGG the value was 1 ± 0.021. For AGGGGCTGTG the value was 0.9991 ± 0.0074.

Turning to TGGGTGCCGA, the switch fluorescence ratio came to 0.989 ± 0.011.

AGCCGTTTCG: the switch fluorescence ratio was found to be 0.999 ± 0.017.

As to ACTCACATAG, the switch fluorescence ratio turned out to be 1.217 ± 0.0056.

Take GCTGTATATT: the switch fluorescence ratio worked out at 0.993 ± 0.0017.

Take AGGGTAAATA: the switch fluorescence ratio amounted to 1.0193 ± 0.00016. Regarding GCTAACGTGC, the switch fluorescence ratio is 0.993 ± 0.046. For GTGGTGCTAG, the switch fluorescence ratio was 0.97206 ± 1.9e-05. To AGAACCTAGT belongs 0.996 ± 0.031; to ACTGGGTAGA, 1.0278 ± 0.00073.

Take TTCCAGGGGG: the switch fluorescence ratio amounted to 1.08 ± 0.089. To TTTGGCGCGA belongs 1.43 ± 0.58. With CCGGAAAAAG, the switch fluorescence ratio was 1.02 ± 0.074. To TCATAGGTAC belongs 1.04 ± 0.031; to TTAAGGACGG, 0.994 ± 0.065. For TTAGCATAAA the value was 1.04 ± 0.024; for TGGGTACTGG, 1.02 ± 0.018. For the sequence TCAGACTACT, the switch fluorescence ratio came out at 1.02 ± 0.021.

On to TTTATGAATT, for which the switch fluorescence ratio was determined as 1.03 ± 0.019. To AGTAATTGGT belongs 0.9954 ± 0.0088; to TAATTGTCTA, 1 ± 0.043; to TTATAATTGA, 1.02 ± 0.031.

For the sequence GTTTCGCGA, the switch fluorescence ratio is 1.14 ± 0.041.

Turning to GTTCGGGGGG, the switch fluorescence ratio was 1 ± 0.032. To AGTTTGATGT belongs 1 ± 0.023; to CGATTATGGT, 1.003 ± 0.0094; to CACGATTTTT, 0.988 ± 0.022. For TGAAATGGGT the value was 1.17 ± 0.24; for TTTGTTTTA, 1.01 ± 0.019.

As to GGGAGTTAAA, the switch fluorescence ratio worked out at 0.972 ± 0.013. On to AGGAATAAGC, for which the switch fluorescence ratio worked out at 1.01 ± 0.012.

Turning to TGGGGAAGAG, the switch fluorescence ratio turned out to be 1.02 ± 0.027.

With GACGGGCTGT, the switch fluorescence ratio amounted to 0.985 ± 0.029.

Take ATGTGCATAT: the switch fluorescence ratio came to 1.03 ± 0.02.

For the sequence AAATTGTCAA, the switch fluorescence ratio was 1.01 ± 0.05. Consider GAGAGGGAGG, for which the switch fluorescence ratio worked out at 0.979 ± 0.015. As for ACGGGGAGGT, the switch fluorescence ratio was determined as 0.981 ± 0.04. To TAATGGGTTA belongs 1 ± 0.037; to ACAATTGATG, 1 ± 0.04.

For the sequence TAGGTAGATG, the switch fluorescence ratio amounted to 1.02 ± 0.018. For GGGTGGCGCC the value was 0.988 ± 0.012; for CAGAAGGGGA, 1.09 ± 0.079; for GCGCTAGATG, 1.008 ± 0.0093.

In the case of GCTGGGGGCA, the switch fluorescence ratio amounted to 1.05 ± 0.098. To GTGTTGTTTT belongs 0.987 ± 0.028.

For the sequence GTTCGCAAAT, the switch fluorescence ratio was determined as 1.09 ± 0.063. For GTGTAAGGTA the value was 1.02 ± 0.018; for GGTTAAGGTC, 1 ± 0.029. As to TGTATTTAGA, the switch fluorescence ratio is 1.02 ± 0.032. To TACAAGGACG belongs 1.03 ± 0.098.

For TAGTTCGTTG, the switch fluorescence ratio amounted to 0.9799 ± 0.0081. To AGGGTAATCA belongs 0.993 ± 0.03; to TAGTTGTAAA, 1.03 ± 0.075. To CAGTTGTGTG belongs 0.994 ± 0.034; to TAGGCAGGGT, 1.56 ± 0.78.

As to GAAGGGGCAG, the switch fluorescence ratio turned out to be 0.97 ± 0.014. To AAACAGGAGT belongs 1.008 ± 0.0037; to TCACAATGCT, 1.55 ± 0.016; to CGGAAGCTTT, 1.04 ± 0.021. To TTGGTTTGGG belongs 0.98 ± 0.022; to GGTATTGAGT, 0.992 ± 0.03. Consider GAGGGGCGCC, for which the switch fluorescence ratio was 0.987 ± 0.016. For TTTAACTAGA the value was 1.041 ± 0.0061; for CTGACCGGAG, 1.24 ± 0.036; for GGCTTTGGTC, 1.018 ± 0.0099.
